Biological target: human HP1 CSDα (109–185) (human, UniProt P45973 109-185)
Assay: other fluorescence titration

Sequence of human HP1 CSDα (109–185) (P45973 109-185): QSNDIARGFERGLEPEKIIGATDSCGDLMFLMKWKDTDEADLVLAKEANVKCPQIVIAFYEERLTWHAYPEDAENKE

- Kd: 430 ± 100 nM
B1: CAF1 p150(210–238) (peptide, UniProt Q9QWF0 210-238, looked up)
chain: SKAGDLLFIEKVPVVVLEDILATKPSIAS

Source: article PMC3365711 (The Journal of Biological Chemistry, 2012)
